From article PMC3469465, “Muscle-Specific Splicing Factors ASD-2 and SUP-12 Cooperatively Switch Alternative Pre-mRNA Processing Patterns of the ADF/Cofilin Gene in Caenorhabditis elegans”

T1: FLAG-SUP-12 (Caenorhabditis elegans, UniProt O45189 1-248)
T1 sequence: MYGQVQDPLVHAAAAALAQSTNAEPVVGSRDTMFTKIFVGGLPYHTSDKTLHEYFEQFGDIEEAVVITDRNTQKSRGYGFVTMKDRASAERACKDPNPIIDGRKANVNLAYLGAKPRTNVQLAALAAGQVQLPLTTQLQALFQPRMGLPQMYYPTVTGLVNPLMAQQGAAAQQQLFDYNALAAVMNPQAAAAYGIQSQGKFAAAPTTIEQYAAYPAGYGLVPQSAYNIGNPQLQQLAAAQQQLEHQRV


Assays:
[1] = molecular target: T1, FLAG-SUP-12; test: EMSA; 20 mM HEPES-KOH pH 7.9, 150 mM KCl, 5% glycerol (EMSA only), 1% Triton X-100, 1 mM DTT, 0.1 mM PMSF, 100 ng/ul E. coli tRNA, 50 ng/ul BSA, 30 min, 20 C; conditions: protein: recombinant; tags: FLAG; label: 32P (alpha-32P UTP, internal)
[2] = molecular target: T1, FLAG-SUP-12; test: EMSA; similar extent to WT; 20 mM HEPES-KOH pH 7.9, 150 mM KCl, 5% glycerol (EMSA only), 1% Triton X-100, 1 mM DTT, 0.1 mM PMSF, 100 ng/ul E. coli tRNA, 50 ng/ul BSA, 30 min, 20 C; conditions: protein: recombinant; tags: FLAG; label: 32P (alpha-32P UTP, internal)

Binder | binding result [1] | binding result [2]
GGGAGACUAACCUAACCUAACCUAUGUGUGCCUGUUUUCUAG (ssRNA) [unc-60 intron 1A WT EMSA probe] | binds | 
GGGAGACAAACCAAACCAAACCUAUGUGUGCCUGUUUUCUAG (ssRNA) [unc-60 intron 1A M1 EMSA probe] |  | binds
